Measured values: article doi:10.1101/2024.01.05.574393 (bioRxiv, 2024)
Numbering of substitutions follows the chain as printed. Names and notes keep the numbering of the source.

B1: FLNCd24 (domain 24 of filamin C, residues 2630-2724), wild type (domain or fragment)
chain: GSKFSSDASKVVTRGPGLSQAFVGQKNSFTVDCSKAGTNMMMVGVHGPKTPCEEVYVKHMGNRVYNVTYTVKEKGDYILIVKWGDESVPGSPFKVKV
B2: FLNCd24 Y2683E (phospho-mimic, residues 2630-2724) (domain or fragment)
chain: B1 chain with Y56E
B3: FLNCd24 T2677D (phospho-mimic, residues 2630-2724) (domain or fragment)
chain: B1 chain with T50D
B4: HSPB7ACD C131S (residues 78-162 of isoform 2) (domain or fragment)
chain: not shown

Tests used:
native MS [1] = molecular target: the molecule itself; assay: native MS
native MS [2] = molecular target: the molecule itself; assay: native MS; remark: listed apart in the source
[3] = molecular target: HSPB7ΔN (residues 78-175 of isoform 2) (human, UniProt Q9UBY9-2 78-175); assay: native MS
[4] = molecular target: B1; assay: crystal structure

Binder	stoichiometry N (native MS [1])	Kd (native MS [2])	Kd [3]	binding result [4]
B1	2	75.9 ± 8.4 nM	6.7 ± 1.4 nM	–
B2	–	4050 ± 557 nM	–	–
B3	–	8.5 ± 1 nM	–	–
B4	–	–	–	binds
